Test system: Escherichia coli TOP10
Test: shrunken log2 fold change of peptide-encoding DNA abundance (4.5 h post-induction vs induction); higher = less antimicrobial activity (less host growth inhibition)
Conditions: time post-induction: 4.5 h; library: site-saturation at positions 5, 18, 19, 20
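Further: peptides expressed intracellularly from a pBAD plasmid library in pooled LB shake-flask culture, induced with 0.3% L-arabinose, DNA abundance read by NGS, three biological replicates, DESeq2 with apeglm shrinkage.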

Sequence: RRIRLRPPRLPRPRPRPIQSPRP
- shrunken log2 fold change: -0.0832

Sequence: RRIRNRPPRLPRPRPRPVQWPRP
- shrunken log2 fold change: -0.0368

Sequence: RRIRCRPPRLPRPRPRPYRWPRP
- shrunken log2 fold change: -0.141

Sequence: RRIRYRPPRLPRPRPRPWYTPRP
- shrunken log2 fold change: -1.81

Sequence: RRIRARPPRLPRPRPRPNDNPRP
- shrunken log2 fold change: -0.344

Sequence: RRIRFRPPRLPRPRPRPLDFPRP
- shrunken log2 fold change: -0.325

Sequence: RRIRPRPPRLPRPRPRPVLEPRP
- shrunken log2 fold change: -0.147

Sequence: RRIRRRPPRLPRPRPRPHPPPRP
- shrunken log2 fold change: 0.746

Sequence: RRIRARPPRLPRPRPRPMFLPRP
- shrunken log2 fold change: 0.00213

Sequence: RRIRERPPRLPRPRPRPYQIPRP
- shrunken log2 fold change: -0.388

Sequence: RRIRPRPPRLPRPRPRPAMFPRP
- shrunken log2 fold change: 0.0516

Sequence: RRIRQRPPRLPRPRPRPFTDPRP
- shrunken log2 fold change: 0.0299

Sequence: RRIRRRPPRLPRPRPRPNKRPRP
- shrunken log2 fold change: -0.0621

Sequence: RRIRKRPPRLPRPRPRPNIKPRP
- shrunken log2 fold change: -0.284

Sequence: RRIRCRPPRLPRPRPRPTLSPRP
- shrunken log2 fold change: -0.0995

Sequence: RRIRGRPPRLPRPRPRPRMGPRP
- shrunken log2 fold change: 0.868

Sequence: RRIRSRPPRLPRPRPRPGQKPRP
- shrunken log2 fold change: 0.0237

Sequence: RRIRRRPPRLPRPRPRPLRHPRP
- shrunken log2 fold change: 0.558

Sequence: RRIRWRPPRLPRPRPRPTPMPRP
- shrunken log2 fold change: 0.24

Sequence: RRIRVRPPRLPRPRPRPADWPRP
- shrunken log2 fold change: 0.379

Sequence: RRIRRRPPRLPRPRPRPGVHPRP
- shrunken log2 fold change: -0.178

Sequence: RRIRTRPPRLPRPRPRPEGMPRP
- shrunken log2 fold change: 0.18

Sequence: RRIRKRPPRLPRPRPRPHIDPRP
- shrunken log2 fold change: 0.0232

Sequence: RRIRNRPPRLPRPRPRPFGRPRP
- shrunken log2 fold change: -0.0535

Sequence: RRIRVRPPRLPRPRPRPWTWPRP
- shrunken log2 fold change: -0.135

Sequence: RRIRDRPPRLPRPRPRPGGLPRP
- shrunken log2 fold change: 0.501

Sequence: RRIRSRPPRLPRPRPRPKKLPRP
- shrunken log2 fold change: 0.0709

Sequence: RRIRQRPPRLPRPRPRPDMGPRP
- shrunken log2 fold change: 0.0191

Sequence: RRIRLRPPRLPRPRPRPFYEPRP
- shrunken log2 fold change: -0.426

Sequence: RRIRKRPPRLPRPRPRPLNGPRP
- shrunken log2 fold change: 0.0417

Sequence: RRIRKRPPRLPRPRPRPPNHPRP
- shrunken log2 fold change: 0.33

Sequence: RRIRHRPPRLPRPRPRPCIWPRP
- shrunken log2 fold change: -0.121

Sequence: RRIRNRPPRLPRPRPRPRSLPRP
- shrunken log2 fold change: 0.0993

Sequence: RRIRGRPPRLPRPRPRPNVQPRP
- shrunken log2 fold change: 1.08

Sequence: RRIRTRPPRLPRPRPRPMVKPRP
- shrunken log2 fold change: -0.0282

Sequence: RRIRMRPPRLPRPRPRPKRKPRP
- shrunken log2 fold change: 2.32

Sequence: RRIRGRPPRLPRPRPRPSRVPRP
- shrunken log2 fold change: 0.61

Sequence: RRIRLRPPRLPRPRPRPVAEPRP
- shrunken log2 fold change: 0.396

Sequence: RRIRFRPPRLPRPRPRPQPNPRP
- shrunken log2 fold change: -0.0249

Sequence: RRIRRRPPRLPRPRPRPVNQPRP
- shrunken log2 fold change: 0.129

Sequence: RRIRIRPPRLPRPRPRPTNGPRP
- shrunken log2 fold change: -0.166

Sequence: RRIRARPPRLPRPRPRPKAHPRP
- shrunken log2 fold change: 0.491

Sequence: RRIRCRPPRLPRPRPRPGWSPRP
- shrunken log2 fold change: -0.0169

Sequence: RRIRNRPPRLPRPRPRPAKYPRP
- shrunken log2 fold change: -0.134

Sequence: RRIRIRPPRLPRPRPRPTIYPRP
- shrunken log2 fold change: -0.865

Sequence: RRIRARPPRLPRPRPRPENVPRP
- shrunken log2 fold change: 0.251

Sequence: RRIRSRPPRLPRPRPRPKFYPRP
- shrunken log2 fold change: -0.371

Sequence: RRIRRRPPRLPRPRPRPSKPPRP
- shrunken log2 fold change: 0.241

Sequence: RRIRWRPPRLPRPRPRPWNGPRP
- shrunken log2 fold change: 0.0206

Sequence: RRIRGRPPRLPRPRPRPFHFPRP
- shrunken log2 fold change: 0.119

Sequence: RRIRHRPPRLPRPRPRPLHCPRP
- shrunken log2 fold change: -0.519

Sequence: RRIRVRPPRLPRPRPRPAYIPRP
- shrunken log2 fold change: -0.738

Sequence: RRIRDRPPRLPRPRPRPRQNPRP
- shrunken log2 fold change: 0.00972

Sequence: RRIRERPPRLPRPRPRPYMFPRP
- shrunken log2 fold change: -0.736

Sequence: RRIRWRPPRLPRPRPRPQECPRP
- shrunken log2 fold change: -0.0185

Sequence: RRIRTRPPRLPRPRPRPIFDPRP
- shrunken log2 fold change: -0.337

Sequence: RRIRKRPPRLPRPRPRPWYSPRP
- shrunken log2 fold change: -0.234

Sequence: RRIRCRPPRLPRPRPRPDVIPRP
- shrunken log2 fold change: -0.405

Sequence: RRIRPRPPRLPRPRPRPKHHPRP
- shrunken log2 fold change: -0.228

Sequence: RRIRKRPPRLPRPRPRPFTAPRP
- shrunken log2 fold change: -0.291

Sequence: RRIRQRPPRLPRPRPRPCMPPRP
- shrunken log2 fold change: -0.27

Sequence: RRIRSRPPRLPRPRPRPPPNPRP
- shrunken log2 fold change: 0.707

Sequence: RRIRPRPPRLPRPRPRPMWHPRP
- shrunken log2 fold change: -0.208

Sequence: RRIRQRPPRLPRPRPRPWSGPRP
- shrunken log2 fold change: 0.082

Sequence: RRIRHRPPRLPRPRPRPDWCPRP
- shrunken log2 fold change: -0.00101

Sequence: RRIRRRPPRLPRPRPRPNAGPRP
- shrunken log2 fold change: 0.0188

Sequence: RRIRERPPRLPRPRPRPNYFPRP
- shrunken log2 fold change: -0.57

Sequence: RRIRKRPPRLPRPRPRPDEHPRP
- shrunken log2 fold change: 0.0292

Sequence: RRIRMRPPRLPRPRPRPGINPRP
- shrunken log2 fold change: -0.319

Sequence: RRIRFRPPRLPRPRPRPWVKPRP
- shrunken log2 fold change: -0.00968

Sequence: RRIRVRPPRLPRPRPRPPFIPRP
- shrunken log2 fold change: -0.23

Sequence: RRIRIRPPRLPRPRPRPPKEPRP
- shrunken log2 fold change: -0.0998

Sequence: RRIRPRPPRLPRPRPRPMHSPRP
- shrunken log2 fold change: 0.355

Sequence: RRIRGRPPRLPRPRPRPTDDPRP
- shrunken log2 fold change: 1.01

Sequence: RRIRLRPPRLPRPRPRPWGPPRP
- shrunken log2 fold change: -0.24

Sequence: RRIRCRPPRLPRPRPRPKSHPRP
- shrunken log2 fold change: -0.117

Sequence: RRIRCRPPRLPRPRPRPASWPRP
- shrunken log2 fold change: 0.219

Sequence: RRIRLRPPRLPRPRPRPIHEPRP
- shrunken log2 fold change: 0.139

Sequence: RRIRGRPPRLPRPRPRPSDSPRP
- shrunken log2 fold change: -0.0596

Sequence: RRIRCRPPRLPRPRPRPHSAPRP
- shrunken log2 fold change: 0.0702

Sequence: RRIRKRPPRLPRPRPRPSVSPRP
- shrunken log2 fold change: 0.172

Sequence: RRIRYRPPRLPRPRPRPNHPPRP
- shrunken log2 fold change: -0.125

Sequence: RRIRNRPPRLPRPRPRPNQLPRP
- shrunken log2 fold change: -0.228

Sequence: RRIRQRPPRLPRPRPRPSGQPRP
- shrunken log2 fold change: -0.0485

Sequence: RRIRYRPPRLPRPRPRPDNWPRP
- shrunken log2 fold change: -0.38

Sequence: RRIRPRPPRLPRPRPRPNVGPRP
- shrunken log2 fold change: 0.0392

Sequence: RRIRARPPRLPRPRPRPWMAPRP
- shrunken log2 fold change: 0.0631

Sequence: RRIRPRPPRLPRPRPRPRETPRP
- shrunken log2 fold change: 0.574

Sequence: RRIRCRPPRLPRPRPRPHSRPRP
- shrunken log2 fold change: 0.0572

Sequence: RRIRSRPPRLPRPRPRPKLKPRP
- shrunken log2 fold change: 0.149

Sequence: RRIRLRPPRLPRPRPRPSEHPRP
- shrunken log2 fold change: -0.453

Sequence: RRIRWRPPRLPRPRPRPPPRPRP
- shrunken log2 fold change: 1.14

Sequence: RRIRTRPPRLPRPRPRPLGVPRP
- shrunken log2 fold change: -0.194

Sequence: RRIRQRPPRLPRPRPRPPDQPRP
- shrunken log2 fold change: 1.82

Sequence: RRIRYRPPRLPRPRPRPKPSPRP
- shrunken log2 fold change: 0.433

Sequence: RRIRGRPPRLPRPRPRPLPHPRP
- shrunken log2 fold change: 0.638

Sequence: RRIRIRPPRLPRPRPRPAECPRP
- shrunken log2 fold change: -0.311

Sequence: RRIRGRPPRLPRPRPRPVVSPRP
- shrunken log2 fold change: 0.62

Sequence: RRIRKRPPRLPRPRPRPEQAPRP
- shrunken log2 fold change: 0.776

Sequence: RRIRYRPPRLPRPRPRPRKHPRP
- shrunken log2 fold change: -0.483

Sequence: RRIRTRPPRLPRPRPRPYEIPRP
- shrunken log2 fold change: -0.453

Sequence: RRIRPRPPRLPRPRPRPMATPRP
- shrunken log2 fold change: 0.323

Sequence: RRIRWRPPRLPRPRPRPMEMPRP
- shrunken log2 fold change: 0.0108

Sequence: RRIRTRPPRLPRPRPRPYCGPRP
- shrunken log2 fold change: -0.294

Sequence: RRIRPRPPRLPRPRPRPTGTPRP
- shrunken log2 fold change: 0.104

Sequence: RRIRIRPPRLPRPRPRPWKVPRP
- shrunken log2 fold change: 0.0349

Sequence: RRIRRRPPRLPRPRPRPCWKPRP
- shrunken log2 fold change: 0.0297

Sequence: RRIRNRPPRLPRPRPRPWAVPRP
- shrunken log2 fold change: 0.0374

Sequence: RRIRCRPPRLPRPRPRPRYSPRP
- shrunken log2 fold change: -0.712
